# Measured values: US20180237497A1 (CANCER RESEARCH TECHNOLOGY, published 2018)
# What was measured:
# [1] = biological target: T1, human IGF2^1-67 (mature insulin-like growth factor 2) (human, UniProt P01344 25-91, biotinylated (site not stated) where immobilised on the chip (Tables 1-4)); test: SPR kinetic, biotin-IGF2 on chip, pH 6.5
# T1 construct: mature; also called mature IGF2; biotinylated IGF2
# Method: Measurements were carried out at 25° C. in MES-EP buffer, 20 mM MES pH 6.5, 150 mM NaCl, 3 mM EDTA, and 0.005% (v/v) surfactant P20). Data for KD expressed as mean of each experiment, and means of kon and koff are shown.
# (§1) Final kinetic analysis of mutants by SPR was conducted using a Biacore T200 biosensor at 25° C. in either HBS-EP (10 mM HEPES pH 7.4, 150 mM NaCl, 3 mM EDTA, and 0.005% (v/v) surfactant P20) or MES-EP (20 mM MES pH 6.5, 150 mM NaCl, 3 mM EDTA, and 0.005% (v/v) surfactant P20) at a flow-rate of 40 μL min⁻¹. […] For the analysis of the Fc-domain 11^AB5 interaction, approximately 50 RU of a biotinylated IGF2:biotinylated ubiquitin mixture (1:8 proportion) was immobilized on the CM5-streptavidin chip. This interaction was also analysed by immobilizing the Fc-domain 11^AB5 and Fc-domain 11^AB5-RHH (or Fc-domain 11^I1572A as control) by Human Antibody Capture (monoclonal mouse anti-human IgG antibody immobilised on a CM5 chip by amine coupling, GE Healthcare) with and without human IgG1 Fc fragment (Bethyl Laboratories, UK) in the control flow cell. […] T200 BiaEvaluation software (GE Healthcare) was used to fit the resulting curves according to a 1:1 binding model. Steady state affinities were determined using the kinetic data, taking the response average at 5 seconds before injection end and for 5 seconds average. Thermodynamic data was performed across the temperature range of 10° C. to 30° C., van't Hoff and Erying plots generated and ΔH, −TΔS and ΔG values determined as previously described.
# [2] = biological target: T1, human IGF2^1-67 (mature insulin-like …); test: SPR steady state, biotin-IGF2 on chip, pH 7.4
# Source text: (§2) Surface plasmon resonance (SPR) binding analysis of recombinant M6P/IGF2R domain 11 mutants interaction with IGF2. Kon indicates association (on) rate; koff, dissociation (off) rate; RU, response units. Binding to IGF2 assessed with BIAcore T200 using purified biotinylated IGF2 and IGF1 on a streptavidin biosensor chip. Recombinant proteins were expressed either in E. coli and/or P. pastoris. All the mutants in the FG and CD loops are on the domain 11^AB5 background for the AB loop unless otherwise stated. All experiments were carried out at 25° C. in HBS-EP buffer (pH 7.4), were repeated 2-5 times on two independent BIAcore chips. nd=not determined. Data for KD expressed as mean of each experiment, and means of kon and koff are shown.
# as §1, with “average.” for “average. Thermodynamic data was performed across the temperature range of 10° C. to 30° C., van't Hoff and Erying plots generated and ΔH, −TΔS and ΔG values determined as previously described.”
# [3] = biological target: T1, human IGF2^1-67 (mature insulin-like …); test: SPR kinetic, biotin-IGF2 on chip, pH 7.4
# Source text: as §2
# as §1, with “average.” for “average. Thermodynamic data was performed across the temperature range of 10° C. to 30° C., van't Hoff and Erying plots generated and ΔH, −TΔS and ΔG values determined as previously described.”
# [4] = biological target: T1, human IGF2^1-67 (mature insulin-like …); test: SPR steady state, biotin-IGF2 on chip
# Method: as §1
# [5] = biological target: T1, human IGF2^1-67 (mature insulin-like …); test: SPR kinetic, biotin-IGF2 on chip
# Method: as §1
# [6] = biological target: T1, human IGF2^1-67 (mature insulin-like …); test: SPR
# Source text: as §2
# as §1, with “model.” for “model. Steady state affinities were determined using the kinetic data, taking the response average at 5 seconds before injection end and for 5 seconds average. Thermodynamic data was performed across the temperature range of 10° C. to 30° C., van't Hoff and Erying plots generated and ΔH, −TΔS and ΔG values determined as previously described.”
# [7] = biological target: T1, human IGF2^1-67 (mature insulin-like …); test: SPR kinetic, biotin-IGF2 on chip, pH 7.4; remark: listed apart in the source
# Method: as §1
# [8] = biological target: T1, human IGF2^1-67 (mature insulin-like …); test: SPR steady state, biotin-IGF2 on chip, pH 7.4; remark: listed apart in the source
# Method: as §1
# T1 sequence (P01344 25-91): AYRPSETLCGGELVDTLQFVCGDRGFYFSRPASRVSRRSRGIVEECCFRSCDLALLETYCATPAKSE
Binder,Kd [2] [nM],Kd [3] [nM],koff [3] [s⁻¹],kon [3] [M⁻¹ s⁻¹],Kd [4] [nM],Kd [5] [nM],koff [5] [s⁻¹],kon [5] [M⁻¹ s⁻¹],further results
"IGF2R domain 11^WT (receptor, Soluble His6-tagged domain 11 from P. pastoris and/or E. coli; also called wild-type domain 11) MKSNEHDDCQVTNPSTGHLFDLSSLSGRAGFTAAYSEKGLVYMSICGENENCPPGVGACFGQTRISVGKANKRLRYVDQVLQLVYKDGSPCPSKSGLSYKSVISFVCRPEAGPTNRPMLISLDKQTCTLFFSWHTPLACEQATECSV",64,46,0.23,5e+06,64,46,0.23,5e+06,Kd [1]: 35.1 nM; koff [1]: 0.144 s⁻¹; kon [1]: 2.68e+06 M⁻¹ s⁻¹
"domain 11^AB5 K1601R (receptor, See m5) MKSNEHDDCQVTNPSTGHLFDLSSLSGRAGFTAAYAKGWGVYMSICGENENCPPGVGACFGQTRISVGKANKRLRYVDQVLQLVYKDGSPCPSRSGLSYKSVISFVCRPEAGPTNRPMLISLDKQTCTLFFSWHTPLACEQATECSV",5.78,4.75,0.0251,5.28e+06,–,–,–,–,fold improvement of affinity [6]: ≤ 2 fold
"domain 11^WT + 23D (HI-HFQS) (receptor, See m5; Protein quality poor based on absorption spectra) MKSNEHDDCQVTNPSTGHLFDLSSLSGRAGFTAAYSEKGLVYMSICGENENCPPGVGACFGQTRISVGKANKRLRYVDQVLQLVYKDGSPCPSKSGLSYKSVISFVCRPEAGPTNRPMLISLHFQSCTLFFSWHTPLACEQATECSV",–,–,–,–,220,176,0.065,250000,–
"domain 11^WT + 26C (HI-DMQT) (receptor, See m5; Protein quality poor) MKSNEHDDCQVTNPSTGHLFDLSSLSGRAGFTAAYSEKGLVYMSICGENENCPPGVGACFGQTRISVGKANKRLRYVDQVLQLVYKDGSPCPSKSGLSYKSVISFVCRPEAGPTNRPMLISLDMQTCTLFFSWHTPLACEQATECSV",–,–,–,–,127,130,0.24,1.89e+06,–
"domain 11^AB5 + 51F (HI-NRQS) (receptor, See m5; Protein quality poor) MKSNEHDDCQVTNPSTGHLFDLSSLSGRAGFTAAYAKGWGVYMSICGENENCPPGVGACFGQTRISVGKANKRLRYVDQVLQLVYKDGSPCPSKSGLSYKSVISFVCRPEAGPTNRPMLISLNRQSCTLFFSWHTPLACEQATECSV",–,–,–,–,6.94,13.5,0.1,7.4e+06,–
"IGF2R domain 11^AB3 (receptor, His6-tagged soluble domain 11; also called domain 11^E1544K, K1545S, L1547V; 1542YSKSGV1547) MKSNEHDDCQVTNPSTGHLFDLSSLSGRAGFTAAYSKSGVVYMSICGENENCPPGVGACFGQTRISVGKANKRLRYVDQVLQLVYKDGSPCPSKSGLSYKSVISFVCRPEAGPTNRPMLISLDKQTCTLFFSWHTPLACEQATECSV",15.5,15.3,0.044,2.76e+06,15.5,15.3,0.044,2.76e+06,Kd [7]: 15.3 nM; koff [7]: 0.044 s⁻¹; kon [7]: 2.76e+06 M⁻¹ s⁻¹; Kd [1]: 11.8 nM; koff [1]: 0.0381 s⁻¹; kon [1]: 3.43e+06 M⁻¹ s⁻¹; Kd [8]: 15.5 nM
"domain 11^AB3 P1597K (receptor, See m5) MKSNEHDDCQVTNPSTGHLFDLSSLSGRAGFTAAYSKSGVVYMSICGENENCPPGVGACFGQTRISVGKANKRLRYVDQVLQLVYKDGSKCPSKSGLSYKSVISFVCRPEAGPTNRPMLISLDKQTCTLFFSWHTPLACEQATECSV",–,–,–,–,–,–,–,–,Kd [7]: 2.78 nM; koff [7]: 0.0287 s⁻¹; kon [7]: 1.05e+07 M⁻¹ s⁻¹; fold change of KD against domain 11^AB3 [6]: 6 fold; fold reduction of koff against domain 11^AB3 [6]: 2 fold; Kd [8]: 3.59 nM

# Now from value to binder, other results behind:
Kd [2] [nM],Kd [3] [nM],koff [3] [s⁻¹],kon [3] [M⁻¹ s⁻¹],Kd [4] [nM],Kd [5] [nM],koff [5] [s⁻¹],kon [5] [M⁻¹ s⁻¹],Binder,further results
–,–,–,–,194,195,0.25,2e+06,"domain 11^WT + 27G (HI-NMAL) (receptor, See m5; Protein quality poor) MKSNEHDDCQVTNPSTGHLFDLSSLSGRAGFTAAYSEKGLVYMSICGENENCPPGVGACFGQTRISVGKANKRLRYVDQVLQLVYKDGSPCPSKSGLSYKSVISFVCRPEAGPTNRPMLISLNMALCTLFFSWHTPLACEQATECSV",–
5.11,3.61,0.0191,5.88e+06,–,–,–,–,"domain 11^AB5 S1602Q (receptor, See m5) MKSNEHDDCQVTNPSTGHLFDLSSLSGRAGFTAAYAKGWGVYMSICGENENCPPGVGACFGQTRISVGKANKRLRYVDQVLQLVYKDGSPCPSKQGLSYKSVISFVCRPEAGPTNRPMLISLDKQTCTLFFSWHTPLACEQATECSV",fold improvement of affinity [6]: ≤ 2 fold
–,–,–,–,135,119,0.15,1.07e+06,"domain 11^WT + 312G (HI-VKLM) (receptor, See m5; Protein quality poor) MKSNEHDDCQVTNPSTGHLFDLSSLSGRAGFTAAYSEKGLVYMSICGENENCPPGVGACFGQTRISVGKANKRLRYVDQVLQLVYKDGSPCPSKSGLSYKSVISFVCRPEAGPTNRPMLISLVKLMCTLFFSWHTPLACEQATECSV",–
5,4.35,0.018,4.5e+06,–,–,–,–,"domain 11^AB5 W1546F (receptor, See m5) MKSNEHDDCQVTNPSTGHLFDLSSLSGRAGFTAAYAKGFGVYMSICGENENCPPGVGACFGQTRISVGKANKRLRYVDQVLQLVYKDGSPCPSKSGLSYKSVISFVCRPEAGPTNRPMLISLDKQTCTLFFSWHTPLACEQATECSV",fold reduction of koff [6]: 2 fold
